Laboratory results as given in IntAct's records for PubMed 17955262.

B1: Frizzled-4 (Homo sapiens), Q9ULV1 (parent)
chain: MAWRGAGPSVPGAPGGVGLSLGLLLQLLLLLGPARGFGDEEERRCDPIRISMCQNLGYNVTKMPNLVGHELQTDAELQLTTFTPLIQYGCSSQLQFFLCSVYVPMCTEKINIPIGPCGGMCLSVKRRCEPVLKEFGFAWPESLNCSKFPPQNDHNHMCMEGPGDEEVPLPHKTPIQPGEECHSVGTNSDQYIWVKRSLNCVLKCGYDAGLYSRSAKEFTDIWMAVWASLCFISTAFTVLTFLIDSSRFSYPERPIIFLSMCYNIYSIAYIVRLTVGRERISCDFEEAAEPVLIQEGLKNTGCAIIFLLMYFFGMASSIWWVILTLTWFLAAGLKWGHEAIEMHSSYFHIAAWAIPAVKTIVILIMRLVDADELTGLCYVGNQNLDALTGFVVAPLFTYLVIGTLFIAAGLVALFKIRSNLQKDGTKTDKLERLMVKIGVFSVLYTVPATCVIACYFYEISNWALFRYSADDSNMAVEMLKIFMSLLVGITSGMWIWSAKTLHTWQKCSNRLVNSGKVKREKRGNGWVKPGKGSETVV
B2: Norrin (Homo sapiens), Q00604 (parent)
chain: MRKHVLAASFSMLSLLVIMGDTDSKTDSSFIMDSDPRRCMRHHYVDSISHPLYKCSSKMVLLARCEGHCSQASRSEPLVSFSTVLKQPFRSSCHCCRPQTSKLKALRLRCSGGMRLTATYRYILSCHCEECNS

Variants of: B1
Conditions: with ndp_human NDP, Q00604

Variant	effect of a mutation on the interaction
M105V	decreasing interaction

Variants of: B2
Conditions: with fzd4_human FZD4, Q9ULV1

Variant	effect of a mutation on the interaction
R115L	decreasing interaction
K54D	decreasing interaction
